Reference: publication PMC2196193

Biological target: MBP-III2 (rat) (UniProt P04937)
Assay: ELISA

Chain of UniProt P04937 (P04937 701-808): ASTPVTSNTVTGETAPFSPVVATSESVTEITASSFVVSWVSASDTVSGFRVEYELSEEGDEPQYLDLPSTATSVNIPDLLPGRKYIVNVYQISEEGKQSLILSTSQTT

rat plasma fibronectin (from UniProt P04937 25-2477) (natural protein)
Kd: 0.028 µM
